Reference: patent publication US20210070882A1 (Hoffmann-La Roche, published 2021)
Where a chain is given by its changes, count along the chain named. Several values for one entry are separate records, joined by “and”; a condition that tells them apart may be missing. Identical values can stand only once. Like-named read-outs stand apart in the source and are kept apart here.

B1: Molecule B: 2+1 IgG CrossFab, inverted, without charge modifications (CH1/CL exchange in CD3 binder, parental murine CD19 binder 8B8) (bispecific antibody)
chain 1: EVQLQQSGPELVKPGASVKMACKASGYTFTDYIMHWVKQKTGQGLEWIGYINPYNDGSKYTEKFNGKATLTSDKSSITAYMELSSLTSEDSAVYYCARGTYYYGSALFDYWGQGTTLTVSSASTKGPSVFPLAPSSKSTSGGTAALGCLVKDYFPEPVTVSWNSGALTSGVHTFPAVLQSSGLYSLSSVVTVPSSSLGTQTYICNVNHKPSNTKVDKKVEPKSCDKTHTCPPCPAPEAAGGPSVFLFPPKPKDTLMISRTPEVTCVVVDVSHEDPEVKFNWYVDGVEVHNAKTKPREEQYNSTYRVVSVLTVLHQDWLNGKEYKCKVSNKALGAPIEKTISKAKGQPREPQVCTLPPSRDELTKNQVSLSCAVKGFYPSDIAVEWESNGQPENNYKTTPPVLDSDGSFFLVSKLTVDKSRWQQGNVFSCSVMHEALHNHYTQKSLSLSP
chain 2: not shown
chain 3: QAVVTQEPSLTVSPGGTVTLTCGSSTGAVTTSNYANWVQEKPGQAFRGLIGGTNKRAPGTPARFSGSLLGGKAALTLSGAQPEDEAEYYCALWYSNLWVFGGGTKLTVLSSASTKGPSVFPLAPSSKSTSGGTAALGCLVKDYFPEPVTVSWNSGALTSGVHTFPAVLQSSGLYSLSSVVTVPSSSLGTQTYICNVNHKPSNTKVDKKVEPKSC
chain 4: DAVMTQTPLSLPVSLGDQASISCRSSQSLENSNGNTYLNWYLQKPGQSPQLLIYRVSKRFSGVLDRFSGSGSGTDFTLKISRVEAEDLGVYFCLQLTHVPYTFGGGTKLEIKRTVAAPSVFIFPPSDEQLKSGTASVVCLLNNFYPREAKVQWKVDNALQSGNSQESVTEQDSKDSTYSLSSTLTLSKADYEKHKVYACEVTHQGLSSPVTKSFNRGEC
notes: also called CD19 TCB_8B8; CD19 TCB_8 B8
B2: DP47 TCB (untargeted TCB having an identical structure as molecule B but with the DP47 binder instead of a CD19 binder) (bispecific antibody)
heavy 1: not shown
heavy 2: not shown
light 1: B1 chain 3
light 2: not shown
notes: Negative control; also called untargeted TCB control; copies: 1 + 1 + 1 + 2
B3: Molecule D: 2+1 IgG CrossFab, inverted, without charge modifications (CH1/CL exchange in CD3 binder, murine CD19 binder 10C1) (bispecific antibody)
chain 1: B1 chain 3
chain 2: EVQLQQSGPELVKPGASVKMSCKASGYTFTSYVMHWVKQKPGQGLEWIGYINPYNDGTKFNEKFKGKATLTSDKSSSTAYMELSSLTSEDSAVYYCTRGVYYYGSSQGDYWGQGTTLTVSSASTKGPSVFPLAPSSKSTSGGTAALGCLVKDYFPEPVTVSWNSGALTSGVHTFPAVLQSSGLYSLSSVVTVPSSSLGTQTYICNVNHKPSNTKVDKKVEPKSCDKTHTCPPCPAPEAAGGPSVFLFPPKPKDTLMISRTPEVTCVVVDVSHEDPEVKFNWYVDGVEVHNAKTKPREEQYNSTYRVVSVLTVLHQDWLNGKEYKCKVSNKALGAPIEKTISKAKGQPREPQVCTLPPSRDELTKNQVSLSCAVKGFYPSDIAVEWESNGQPENNYKTTPPVLDSDGSFFLVSKLTVDKSRWQQGNVFSCSVMHEALHNHYTQKSLSLSP
chain 3: not shown
chain 4: B1 chain 4 with V56I, K58N, L64P, S68N, L96V, Y101W
notes: Same chain layout as molecule B (CD19 VL-CL light chain twice); also called CD19 TCB_10C1; CD19 TCB_10 C1

Tests used:
human CD19 [1] = target: T1, human CD19 (human, UniProt P15391 20-556); experiment: flow cytometry on CD19-expressing Raji cells
T1 construct: whole, on cells; also called B-lymphocyte antigen CD19; B-lymphocyte surface antigen B4
T1 sequence (looked up): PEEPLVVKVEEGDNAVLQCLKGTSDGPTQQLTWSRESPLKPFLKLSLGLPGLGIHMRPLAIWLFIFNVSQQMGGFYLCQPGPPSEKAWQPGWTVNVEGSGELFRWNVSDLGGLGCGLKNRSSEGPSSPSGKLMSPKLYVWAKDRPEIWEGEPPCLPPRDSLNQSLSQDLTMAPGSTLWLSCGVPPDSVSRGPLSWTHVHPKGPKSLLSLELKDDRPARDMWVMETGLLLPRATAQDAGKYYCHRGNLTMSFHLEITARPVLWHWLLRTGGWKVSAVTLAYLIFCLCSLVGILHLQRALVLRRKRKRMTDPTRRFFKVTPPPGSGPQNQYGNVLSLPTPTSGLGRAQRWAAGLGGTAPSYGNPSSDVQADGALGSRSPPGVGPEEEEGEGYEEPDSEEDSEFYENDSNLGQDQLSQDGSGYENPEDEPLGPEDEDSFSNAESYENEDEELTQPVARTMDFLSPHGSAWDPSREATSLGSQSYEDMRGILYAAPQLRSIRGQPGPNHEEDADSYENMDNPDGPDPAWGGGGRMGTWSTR
Description: (§1) The binding of CD19 IgGs and CD19 TCBs to human CD19- and CD3-expressing target cells was tested using CD19-expressing Burkitt's lymphoma cells (Raji) and CD3-expressing immortalized T lymphocyte line (Jurkat). Briefly, cells were harvested, counted, checked for viability and resuspended at 2×10⁶ cells/ml in FACS buffer (100 μl PBS 0.1% BSA). 100 μl of cell suspension (containing 0.2×10⁶ cells) were incubated in round-bottom 96-well plate for 30 min at 4° C. with increasing concentrations of the CD19 IgGs and CD19 TCBs (10 pM-200 nM), washed twice with cold PBS 0.1% BSA, re-incubated for further 30 min at 4° C. with the PE-conjugated AffiniPure F(ab′)2 Fragment goat anti-human IgG Fcg Fragment Specific secondary antibody (Jackson Immuno Research Lab PE #109-116-170), washed twice with cold PBS 0.1% BSA and immediately analyzed by FACS using a FACS Cantoll (Software FACS Diva) by gating live, DAPI-negative, cells.

human CD19 [2] = target: T1, human CD19; experiment: cell-based or functional assay
human CD19 [3] = target: T1, human CD19; experiment: cell-based or functional assay; remark: listed apart in the source
human CD19 [4] = target: T1, human CD19; experiment: cell-based or functional assay; remark: listed apart in the source
human CD19 [5] = target: T1, human CD19; experiment: cell-based or functional assay; remark: listed apart in the source
human CD19 [6] = target: T1, human CD19; experiment: cell-based or functional assay; remark: listed apart in the source
human CD19 [7] = target: T1, human CD19; experiment: cell-based or functional assay; remark: listed apart in the source
human CD19 [8] = target: T1, human CD19; experiment: cell-based or functional assay; remark: listed apart in the source
human CD19 [9] = target: T1, human CD19; experiment: cell-based or functional assay; remark: listed apart in the source
human CD19 [10] = target: T1, human CD19; experiment: flow cytometry on Nalm-6 cells and normal human B cells
Description: The binding of different CD19 TCB antibody formats (based on 8B8 clone) was assessed on human CD19-expressing target cells (Nalm-6 and normal human B cells) and human CD3-expressing target cells (CD4, CD8 T cells and Jurkat cells). The following CD19 TCB antibody formats were tested: molecule B as shown in FIG. 2B (named in this example “CD19 TCB_2+1_no charges_inverted”) and molecule A as shown in FIG. 2A (named in this example “CD19 TCB_2+1_charges CD19_inverted”). […] Briefly, cells were harvested, counted, checked for viability and resuspended at 1.5×10⁶ cells/ml in FACS buffer (100 μl PBS 0.1% BSA).

human CD19 [11] = target: T1, human CD19; experiment: flow cytometry on CD19-expressing Raji cells; remark: listed apart in the source
Description: as §1

Row | Binder | EC50 (human CD19 [1]) | Tumor cell lysis Z-138 cells (21 h), EC50 (human CD19 [3]) [ng/mL] | Tumor cell lysis Z-138 cells (21 h), EC50 (pM) (human CD19 [3]) | T cell activation EC50, CD25/CD4, Nalm-6 (human CD19 [4]) [pM] | T cell activation EC50, CD25/CD4, SUDHL-4 (human CD19 [4]) [pM] | T cell activation EC50, CD25/CD8, Nalm-6 (human CD19 [4]) [pM] | T cell activation EC50, CD25/CD8, SUDHL-4 (human CD19 [4]) [pM] | T cell activation EC50, CD69/CD4, Nalm-6 (human CD19 [4]) [pM] | T cell activation EC50, CD69/CD4, SUDHL-4 (human CD19 [4]) [pM] | T cell activation EC50, CD69/CD8, Nalm-6 (human CD19 [4]) [pM] | T cell activation EC50, CD69/CD8, SUDHL-4 (human CD19 [4]) [pM] | T cell activation EC50 upon Z-138 lysis, CD25/CD4 (human CD19 [5]) [pM] | T cell activation EC50 upon Z-138 lysis, CD25/CD8 (human CD19 [5]) [pM] | T cell activation EC50 upon Z-138 lysis, CD69/CD4 (human CD19 [5]) [pM] | T cell activation EC50 upon Z-138 lysis, CD69/CD8 (human CD19 [5]) [pM] | Tumor lysis EC50 (pM), Nalm-6 (human CD19 [9]) [pM] | Tumor lysis EC50 (pM), SUDHL-4 (human CD19 [9]) [pM] | other results
1 | B1 | 4.1 nM and 0.795 µg/mL | 0.8 | 4.1 | 3.3 | 3.9 | 0.7 | 2.1 | 0.9 | 2 | 0.8 | 2.7 | 2.4 | 2.4 | 1.8 | 2.7 | 1.7 | 0.8 | Tumor cell lysis Z-138 cells (21 h), EC50 (human CD19 [2]): 0.62 ng/mL; Tumor cell lysis Z-138 cells (21 h), EC50 (pM) (human CD19 [2]): 3.2 pM; T cell activation EC50 upon lysis of Z-138 cells, CD25/CD4 (human CD19 [6]): 2.77 pM; T cell activation EC50 upon lysis of Z-138 cells, CD25/CD8 (human CD19 [6]): 1.7 pM; T cell activation EC50 upon lysis of Z-138 cells, CD69/CD4 (human CD19 [6]): ~0.81 pM; T cell activation EC50 upon lysis of Z-138 cells, CD69/CD8 (human CD19 [6]): 0.82 pM; T cell activation EC50 upon lysis of Z-138 cells, CD107/CD4 (human CD19 [6]): 1.37 pM; T cell activation EC50 upon lysis of Z-138 cells, CD107/CD8 (human CD19 [6]): 1.22 pM; T cell activation EC50 upon lysis of Z-138 cells, CD25/CD4 (human CD19 [7]): 3.22 pM; T cell activation EC50 upon lysis of Z-138 cells, CD25/CD8 (human CD19 [7]): 1.86 pM; T cell activation EC50 upon lysis of Z-138 cells, CD69/CD4 (human CD19 [7]): 1.01 pM; T cell activation EC50 upon lysis of Z-138 cells, CD69/CD8 (human CD19 [7]): 0.83 pM; T cell activation EC50 upon lysis of Z-138 cells, CD107/CD4 (human CD19 [7]): 1.68 pM; T cell activation EC50 upon lysis of Z-138 cells, CD107/CD8 (human CD19 [7]): 1.32 pM; Tumor cell lysis Z-138 cells (21 h), EC50 (human CD19 [8]): 0.62 ng/mL; Tumor cell lysis Z-138 cells (21 h), EC50 (pM) (human CD19 [8]): 3.16 pM
2 | B2 |  |  |  |  |  |  |  |  |  |  |  |  |  |  |  |  |  | binding result (human CD19 [10]): no binding
3 | B3 | 7.7 nM and 1.49 µg/mL | 2.2 | 11.1 | 11.8 | 9.7 | 3 | 7.2 | 5.6 | 5.2 | 3.8 | 10.5 | 6.7 | 5.9 | 4.5 | 5.7 | 2.1 | 3.4 | EC50 (human CD19 [11]): 3000 to 8000 pM
